Bridges are numbered along the chain shown (N, C = ends). [ ]: non-standard residue; d: D form. hCys = N[C@@H](CCS)C(=O)O; Pra = C#CC[C@H](N)C(=O)O
B1: P2-15 (peptide)
peptide: H-DPCTWEVWGRECGG[Pra]G-NH2
modifications: disulfide 3-12
SMILES: C#CC[C@H](NC(=O)CNC(=O)CNC(=O)[C@@H]1CSSC[C@H](NC(=O)[C@@H]2CCCN2C(=O)[C@@H](N)CC(=O)O)C(=O)N[C@@H]([C@@H](C)O)C(=O)N[C@@H](Cc2c[nH]c3ccccc23)C(=O)N[C@@H](CCC(=O)O)C(=O)N[C@@H](C(C)C)C(=O)N[C@@H](Cc2c[nH]c3ccccc23)C(=O)NCC(=O)N[C@@H](CCCNC(=N)N)C(=O)N[C@@H](CCC(=O)O)C(=O)N1)C(=O)NCC(N)=O
B2: P2-18 (peptide)
peptide: H-DACTWEVWGRECGG[Pra]G-NH2
modifications: disulfide 3-12
SMILES: C#CC[C@H](NC(=O)CNC(=O)CNC(=O)[C@@H]1CSSC[C@H](NC(=O)[C@H](C)NC(=O)[C@@H](N)CC(=O)O)C(=O)N[C@@H]([C@@H](C)O)C(=O)N[C@@H](Cc2c[nH]c3ccccc23)C(=O)N[C@@H](CCC(=O)O)C(=O)N[C@@H](C(C)C)C(=O)N[C@@H](Cc2c[nH]c3ccccc23)C(=O)NCC(=O)N[C@@H](CCCNC(=N)N)C(=O)N[C@@H](CCC(=O)O)C(=O)N1)C(=O)NCC(N)=O
B3: P2-23 (peptide)
peptide: H-[Pra]CTWEVWGREC-NH2
modifications: disulfide 2-11
SMILES: C#CC[C@H](N)C(=O)N[C@H]1CSSC[C@@H](C(N)=O)NC(=O)[C@H](CCC(=O)O)NC(=O)[C@H](CCCNC(=N)N)NC(=O)CNC(=O)[C@H](Cc2c[nH]c3ccccc23)NC(=O)[C@H](C(C)C)NC(=O)[C@H](CCC(=O)O)NC(=O)[C@H](Cc2c[nH]c3ccccc23)NC(=O)[C@H]([C@@H](C)O)NC1=O
B4: P2-21 (peptide)
peptide: H-[Pra]ACTWEVWGREC-NH2
modifications: disulfide 3-12
SMILES: C#CC[C@H](N)C(=O)N[C@@H](C)C(=O)N[C@H]1CSSC[C@@H](C(N)=O)NC(=O)[C@H](CCC(=O)O)NC(=O)[C@H](CCCNC(=N)N)NC(=O)CNC(=O)[C@H](Cc2c[nH]c3ccccc23)NC(=O)[C@H](C(C)C)NC(=O)[C@H](CCC(=O)O)NC(=O)[C@H](Cc2c[nH]c3ccccc23)NC(=O)[C@H]([C@@H](C)O)NC1=O
B5: P2-17 (peptide)
peptide: H-CTWEVWGRECGG[Pra]G-NH2
modifications: disulfide 1-10
SMILES: C#CC[C@H](NC(=O)CNC(=O)CNC(=O)[C@@H]1CSSC[C@H](N)C(=O)N[C@@H]([C@@H](C)O)C(=O)N[C@@H](Cc2c[nH]c3ccccc23)C(=O)N[C@@H](CCC(=O)O)C(=O)N[C@@H](C(C)C)C(=O)N[C@@H](Cc2c[nH]c3ccccc23)C(=O)NCC(=O)N[C@@H](CCCNC(=N)N)C(=O)N[C@@H](CCC(=O)O)C(=O)N1)C(=O)NCC(N)=O
B6: P2-19 (peptide)
peptide: H-ACTWEVWGRECGG[Pra]G-NH2
modifications: disulfide 2-11
SMILES: C#CC[C@H](NC(=O)CNC(=O)CNC(=O)[C@@H]1CSSC[C@H](NC(=O)[C@H](C)N)C(=O)N[C@@H]([C@@H](C)O)C(=O)N[C@@H](Cc2c[nH]c3ccccc23)C(=O)N[C@@H](CCC(=O)O)C(=O)N[C@@H](C(C)C)C(=O)N[C@@H](Cc2c[nH]c3ccccc23)C(=O)NCC(=O)N[C@@H](CCCNC(=N)N)C(=O)N[C@@H](CCC(=O)O)C(=O)N1)C(=O)NCC(N)=O
B7: P2-20 (truncation, Table 12) (peptide)
peptide: Ac-ACTWEVWGRECGG[Pra]G-NH2
modifications: disulfide 2-11
SMILES: C#CC[C@H](NC(=O)CNC(=O)CNC(=O)[C@@H]1CSSC[C@H](NC(=O)[C@H](C)NC(C)=O)C(=O)N[C@@H]([C@@H](C)O)C(=O)N[C@@H](Cc2c[nH]c3ccccc23)C(=O)N[C@@H](CCC(=O)O)C(=O)N[C@@H](C(C)C)C(=O)N[C@@H](Cc2c[nH]c3ccccc23)C(=O)NCC(=O)N[C@@H](CCCNC(=N)N)C(=O)N[C@@H](CCC(=O)O)C(=O)N1)C(=O)NCC(N)=O
B8: P2-50 (peptide)
peptide: H-DPCTWEVWGRE[hCys]LQGG[Pra]G-NH2
modifications: disulfide 3-12
SMILES: C#CC[C@H](NC(=O)CNC(=O)CNC(=O)[C@H](CCC(N)=O)NC(=O)[C@H](CC(C)C)NC(=O)[C@@H]1CCSSC[C@H](NC(=O)[C@@H]2CCCN2C(=O)[C@@H](N)CC(=O)O)C(=O)N[C@@H]([C@@H](C)O)C(=O)N[C@@H](Cc2c[nH]c3ccccc23)C(=O)N[C@@H](CCC(=O)O)C(=O)N[C@@H](C(C)C)C(=O)N[C@@H](Cc2c[nH]c3ccccc23)C(=O)NCC(=O)N[C@@H](CCCNC(=N)N)C(=O)N[C@@H](CCC(=O)O)C(=O)N1)C(=O)NCC(N)=O
B9: P2-25 (peptide)
peptide: H-DPCVWEVWGRECLQGG[Pra]G-NH2
modifications: disulfide 3-12
SMILES: C#CC[C@H](NC(=O)CNC(=O)CNC(=O)[C@H](CCC(N)=O)NC(=O)[C@H](CC(C)C)NC(=O)[C@@H]1CSSC[C@H](NC(=O)[C@@H]2CCCN2C(=O)[C@@H](N)CC(=O)O)C(=O)N[C@@H](C(C)C)C(=O)N[C@@H](Cc2c[nH]c3ccccc23)C(=O)N[C@@H](CCC(=O)O)C(=O)N[C@@H](C(C)C)C(=O)N[C@@H](Cc2c[nH]c3ccccc23)C(=O)NCC(=O)N[C@@H](CCCNC(=N)N)C(=O)N[C@@H](CCC(=O)O)C(=O)N1)C(=O)NCC(N)=O
B10: P2-33 (peptide)
peptide: H-DPCTWGVWGRECLQGG[Pra]G-NH2
modifications: disulfide 3-12
SMILES: C#CC[C@H](NC(=O)CNC(=O)CNC(=O)[C@H](CCC(N)=O)NC(=O)[C@H](CC(C)C)NC(=O)[C@@H]1CSSC[C@H](NC(=O)[C@@H]2CCCN2C(=O)[C@@H](N)CC(=O)O)C(=O)N[C@@H]([C@@H](C)O)C(=O)N[C@@H](Cc2c[nH]c3ccccc23)C(=O)NCC(=O)N[C@@H](C(C)C)C(=O)N[C@@H](Cc2c[nH]c3ccccc23)C(=O)NCC(=O)N[C@@H](CCCNC(=N)N)C(=O)N[C@@H](CCC(=O)O)C(=O)N1)C(=O)NCC(N)=O
B11: P2-32 (peptide)
peptide: H-DPCTWRVWGRECLQGG[Pra]G-NH2
modifications: disulfide 3-12
SMILES: C#CC[C@H](NC(=O)CNC(=O)CNC(=O)[C@H](CCC(N)=O)NC(=O)[C@H](CC(C)C)NC(=O)[C@@H]1CSSC[C@H](NC(=O)[C@@H]2CCCN2C(=O)[C@@H](N)CC(=O)O)C(=O)N[C@@H]([C@@H](C)O)C(=O)N[C@@H](Cc2c[nH]c3ccccc23)C(=O)N[C@@H](CCCNC(=N)N)C(=O)N[C@@H](C(C)C)C(=O)N[C@@H](Cc2c[nH]c3ccccc23)C(=O)NCC(=O)N[C@@H](CCCNC(=N)N)C(=O)N[C@@H](CCC(=O)O)C(=O)N1)C(=O)NCC(N)=O
B12: P2-26 (peptide)
peptide: H-DPCSWEVWGRECLQGG[Pra]G-NH2
modifications: disulfide 3-12
SMILES: C#CC[C@H](NC(=O)CNC(=O)CNC(=O)[C@H](CCC(N)=O)NC(=O)[C@H](CC(C)C)NC(=O)[C@@H]1CSSC[C@H](NC(=O)[C@@H]2CCCN2C(=O)[C@@H](N)CC(=O)O)C(=O)N[C@@H](CO)C(=O)N[C@@H](Cc2c[nH]c3ccccc23)C(=O)N[C@@H](CCC(=O)O)C(=O)N[C@@H](C(C)C)C(=O)N[C@@H](Cc2c[nH]c3ccccc23)C(=O)NCC(=O)N[C@@H](CCCNC(=N)N)C(=O)N[C@@H](CCC(=O)O)C(=O)N1)C(=O)NCC(N)=O
B13: P2-36 (peptide)
peptide: H-DPCTWEIWGRECLQGG[Pra]G-NH2
modifications: disulfide 3-12
SMILES: C#CC[C@H](NC(=O)CNC(=O)CNC(=O)[C@H](CCC(N)=O)NC(=O)[C@H](CC(C)C)NC(=O)[C@@H]1CSSC[C@H](NC(=O)[C@@H]2CCCN2C(=O)[C@@H](N)CC(=O)O)C(=O)N[C@@H]([C@@H](C)O)C(=O)N[C@@H](Cc2c[nH]c3ccccc23)C(=O)N[C@@H](CCC(=O)O)C(=O)N[C@@H]([C@@H](C)CC)C(=O)N[C@@H](Cc2c[nH]c3ccccc23)C(=O)NCC(=O)N[C@@H](CCCNC(=N)N)C(=O)N[C@@H](CCC(=O)O)C(=O)N1)C(=O)NCC(N)=O
B14: P2-37 (peptide)
peptide: H-DPCTWELWGRECLQGG[Pra]G-NH2
modifications: disulfide 3-12
SMILES: C#CC[C@H](NC(=O)CNC(=O)CNC(=O)[C@H](CCC(N)=O)NC(=O)[C@H](CC(C)C)NC(=O)[C@@H]1CSSC[C@H](NC(=O)[C@@H]2CCCN2C(=O)[C@@H](N)CC(=O)O)C(=O)N[C@@H]([C@@H](C)O)C(=O)N[C@@H](Cc2c[nH]c3ccccc23)C(=O)N[C@@H](CCC(=O)O)C(=O)N[C@@H](CC(C)C)C(=O)N[C@@H](Cc2c[nH]c3ccccc23)C(=O)NCC(=O)N[C@@H](CCCNC(=N)N)C(=O)N[C@@H](CCC(=O)O)C(=O)N1)C(=O)NCC(N)=O
B15: P2-16 (peptide)
peptide: H-CTWEVWGRECLQGG[Pra]G-NH2
modifications: disulfide 1-10
SMILES: C#CC[C@H](NC(=O)CNC(=O)CNC(=O)[C@H](CCC(N)=O)NC(=O)[C@H](CC(C)C)NC(=O)[C@@H]1CSSC[C@H](N)C(=O)N[C@@H]([C@@H](C)O)C(=O)N[C@@H](Cc2c[nH]c3ccccc23)C(=O)N[C@@H](CCC(=O)O)C(=O)N[C@@H](C(C)C)C(=O)N[C@@H](Cc2c[nH]c3ccccc23)C(=O)NCC(=O)N[C@@H](CCCNC(=N)N)C(=O)N[C@@H](CCC(=O)O)C(=O)N1)C(=O)NCC(N)=O

Target: T1, Fc tagged recombinant human EGFR (rhEGFR-Fc, R&D systems, Cat#344-ER-050) (human, UniProt P00533 25-645)
T1 construct: Bought protein; also called apo-EGFR; not shown: Fc tag
Test: SPR
Procedure: Surface plasmon resonance (SPR) binding studies were carried out on a Biacore T200 instrument (GE Healthcare). […] The contact time and resulting amount of rhEGFR-Fc capture was varied based on the nature of the analyte, namely whether it was a peptide or nanoparticle.
Peptide binding assays were carried out in 10 mM PBS buffer supplemented with 0.05% surfactant P20 and 5% DMSO by volume, at 25° C. Peptides were injected over the rhEGFR-Fc surface for 60 s, followed by dissociation (buffer injection) for 60 s and regeneration with a 10 s pulse of 3M MgCl₂. A fresh rhEGFR-Fc surface was generated for each concentration of each peptide tested. Peptide binding data was analyzed by fitting to a 1:1 Langmuir kinetic model to obtain the on-rate (kₐ), off-rate (kd) and/or equilibrium binding constant (KD) of the interaction.

| Binder | KD/P2 KD [ratio] | Result (affinity relative to KD of P2) [ratio] |
| --- | --- | --- |
| B1 | 0.9 |  |
| B2 | 1.6 |  |
| B3 | 4.5 |  |
| B4 | 6.7 |  |
| B5 | 0.4 |  |
| B6 | 2.4 |  |
| B7 | 3 |  |
| B8 |  | 4.56 |
| B9 | 1.1 |  |
| B10 | 42.7 |  |
| B11 | 1.21 |  |
| B12 | 1.68 |  |
| B13 | 3.48 |  |
| H-DPCTFEVWGRECLQGG[Pra]G-NH2 (disulfide 3-12) [P2-29] | 9.24 |  |
| B14 | 10.1 |  |
| B15 | 2 |  |

Reference: patent publication US20170224620A1 (Pfizer, published 2017)
